Measurements: paper PMC6367718 (Cell, 2019)
Changes are numbered by the printed parent chain.

How the values were obtained:
[1] = molecular target: T1, TRV055-occupied FLAG-AT1R (human, UniProt P30556); assay: radioligand binding
T1 chain 1: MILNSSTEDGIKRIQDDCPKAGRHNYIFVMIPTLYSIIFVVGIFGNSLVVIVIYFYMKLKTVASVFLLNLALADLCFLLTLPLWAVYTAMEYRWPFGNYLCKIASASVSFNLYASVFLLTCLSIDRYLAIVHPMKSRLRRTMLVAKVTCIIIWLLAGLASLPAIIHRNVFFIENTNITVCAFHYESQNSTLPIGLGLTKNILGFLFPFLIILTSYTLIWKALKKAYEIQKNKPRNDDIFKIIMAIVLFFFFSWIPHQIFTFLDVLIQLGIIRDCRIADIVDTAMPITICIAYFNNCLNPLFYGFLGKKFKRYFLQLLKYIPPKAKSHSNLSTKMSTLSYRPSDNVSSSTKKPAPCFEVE
T1 chain 2: GVYIHPF

crystal structure = molecular target: the molecule itself; assay: crystal structure

B1: Nb.AT110, purified (VHH)
VHH: QVQLQESGGGLVQAGGSLRLSCAASGNIFDADIMGWYRQAPGKERELVASITDGGSTNYADSVKGRFTISRDNAKNTVYLQMNSLKPEDTAVYYCAAIAYPDIPTYFDYDSDYFYWGQGTQVTVSS
In the case of B1, the “log EC50 (M) of the change in the log IC50 of TRV055” value [1] is reported as -6.6 log M.

B2: Nb.AT110i1, carboxypeptidase A-treated (for crystallography) (VHH)
VHH: B1 VHH with A31V, N58D, I98V, Y113N
B2: binds (crystal structure).
